Results from article PMC5707411.

Biological target: full-length RSV F A2 DS-Cav1 K201N (A-chimera construct) (respiratory syncytial virus subtype A, strain A2)

B1: 5C4 IgG (antibody, V domains shown)
VH: EVQLQQSGAELVKPGASVKLSCTASGFNIKDTFFHWVKQRPEQGLEWIGRIDPADGHTKYDPKFQGKATITADTSSNTAFLQLSSLTSVDTAVYYCATTITAVVPTPYNAMDYWGQGTSVTVSS
VL: DIVLTQSPASLAVSLGQRTTISCRASESVDSFDNSFIHWYQQKPGQPPKLLIFLASSLESGVPARFSGSGSRTDFTLTIDPVEADDAATYYCQQSNEDPFTFGSGTKLEIK
In the case of B1, the EC50 of 5C4 neutralisation of mKate-RSV A2 K201N-mutated virus on HEp-2 cells (viral F without DS-Cav1; antibody format not given) is reported as 0.41 µg/mL.
